Experimental data reported in IntAct's records for PubMed 19219046.

B1: ATP-dependent RNA helicase DDX19B (Homo sapiens), Q9UMR2-1 (parent)
chain: MATDSWALAVDEQEAAAESLSNLHLKEEKIKPDTNGAVVKTNANAEKTDEEEKEDRAAQSLLNKLIRSNLVDNTNQVEVLQRDPNSPLYSVKSFEELRLKPQLLQGVYAMGFNRPSKIQENALPLMLAEPPQNLIAQSQSGTGKTAAFVLAMLSQVEPANKYPQCLCLSPTYELALQTGKVIEQMGKFYPELKLAYAVRGNKLERGQKISEQIVIGTPGTVLDWCSKLKFIDPKKIKVFVLDEADVMIATQGHQDQSIRIQRMLPRNCQMLLFSATFEDSVWKFAQKVVPDPNVIKLKREEETLDTIKQYYVLCSSRDEKFQALCNLYGAITIAQAMIFCHTRKTASWLAAELSKEGHQVALLSGEMMVEQRAAVIERFREGKEKVLVTTNVCARGIDVEQVSVVINFDLPVDKDGNPDNETYLHRIGRTGRFGKRGLAVNMVDSKHSMNILNRIQEHFNKKIERLDTDDLDEIEKIAN

Variants of: B1
Details: with NUP214, P35658-1
Chain of NUP214, P35658-1 (P35658 whole entry): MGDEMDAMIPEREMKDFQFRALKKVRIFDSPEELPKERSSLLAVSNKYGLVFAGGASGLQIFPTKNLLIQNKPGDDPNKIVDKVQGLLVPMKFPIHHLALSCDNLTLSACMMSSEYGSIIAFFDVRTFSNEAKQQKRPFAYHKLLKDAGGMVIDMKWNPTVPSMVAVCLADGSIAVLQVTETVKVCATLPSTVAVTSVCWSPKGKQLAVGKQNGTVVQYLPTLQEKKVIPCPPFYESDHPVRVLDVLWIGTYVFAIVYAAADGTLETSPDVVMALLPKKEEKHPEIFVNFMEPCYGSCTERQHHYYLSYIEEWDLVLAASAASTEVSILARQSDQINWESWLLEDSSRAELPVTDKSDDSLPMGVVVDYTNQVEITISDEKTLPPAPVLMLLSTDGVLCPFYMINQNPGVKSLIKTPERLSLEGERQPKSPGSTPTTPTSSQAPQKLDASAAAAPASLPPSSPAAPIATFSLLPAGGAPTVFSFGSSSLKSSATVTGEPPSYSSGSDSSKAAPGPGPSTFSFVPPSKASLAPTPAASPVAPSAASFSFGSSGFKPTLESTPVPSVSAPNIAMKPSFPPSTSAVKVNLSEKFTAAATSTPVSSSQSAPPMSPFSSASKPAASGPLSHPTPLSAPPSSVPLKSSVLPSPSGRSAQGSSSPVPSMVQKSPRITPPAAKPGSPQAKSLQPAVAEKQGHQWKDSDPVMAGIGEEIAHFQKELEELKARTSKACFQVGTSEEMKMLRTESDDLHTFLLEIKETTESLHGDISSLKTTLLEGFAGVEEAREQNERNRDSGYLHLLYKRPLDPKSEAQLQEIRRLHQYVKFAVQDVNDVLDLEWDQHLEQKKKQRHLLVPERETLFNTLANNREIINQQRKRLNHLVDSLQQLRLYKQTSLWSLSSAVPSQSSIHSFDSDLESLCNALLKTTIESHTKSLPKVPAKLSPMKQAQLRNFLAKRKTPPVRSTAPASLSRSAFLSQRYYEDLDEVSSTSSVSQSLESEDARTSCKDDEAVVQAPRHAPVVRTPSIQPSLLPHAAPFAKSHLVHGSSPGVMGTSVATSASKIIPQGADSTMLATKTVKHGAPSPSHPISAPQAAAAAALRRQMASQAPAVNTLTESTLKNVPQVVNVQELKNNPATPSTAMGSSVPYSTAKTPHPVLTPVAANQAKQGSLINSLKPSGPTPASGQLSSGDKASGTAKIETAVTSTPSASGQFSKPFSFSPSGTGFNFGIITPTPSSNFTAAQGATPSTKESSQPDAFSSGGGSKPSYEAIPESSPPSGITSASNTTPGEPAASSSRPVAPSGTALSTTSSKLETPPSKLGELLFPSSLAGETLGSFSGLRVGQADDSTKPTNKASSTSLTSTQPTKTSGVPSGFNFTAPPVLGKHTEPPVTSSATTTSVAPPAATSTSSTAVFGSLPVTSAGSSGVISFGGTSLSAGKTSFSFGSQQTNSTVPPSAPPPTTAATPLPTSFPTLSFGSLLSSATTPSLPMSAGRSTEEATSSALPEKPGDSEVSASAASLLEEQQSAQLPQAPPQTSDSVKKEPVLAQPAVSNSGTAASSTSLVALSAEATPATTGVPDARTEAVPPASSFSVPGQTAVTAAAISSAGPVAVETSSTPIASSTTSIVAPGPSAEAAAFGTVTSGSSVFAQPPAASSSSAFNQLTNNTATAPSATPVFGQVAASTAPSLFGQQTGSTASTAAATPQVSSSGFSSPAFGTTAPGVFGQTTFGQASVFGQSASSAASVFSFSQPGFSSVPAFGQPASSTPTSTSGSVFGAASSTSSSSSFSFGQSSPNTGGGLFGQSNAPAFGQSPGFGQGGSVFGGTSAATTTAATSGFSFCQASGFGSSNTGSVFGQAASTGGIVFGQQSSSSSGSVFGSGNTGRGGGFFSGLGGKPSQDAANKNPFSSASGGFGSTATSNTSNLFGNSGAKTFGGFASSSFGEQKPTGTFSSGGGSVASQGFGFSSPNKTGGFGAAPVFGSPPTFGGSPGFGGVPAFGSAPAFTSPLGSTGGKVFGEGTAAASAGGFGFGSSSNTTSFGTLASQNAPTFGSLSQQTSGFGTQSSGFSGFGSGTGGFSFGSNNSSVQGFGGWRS

| Variant | effect of a mutation on the interaction |
| --- | --- |
| MATDSWALAVDEQEAAAESLSNLHLKEEKIKPDTNGAVVKTNANAEKTDEEEKEDRAAQSLLNKLIRSNLVDNTNQVEVLQRDPNSPLYSVKSFEELRLKPQLLQGVYAMGFNRPSKIQENALPLMLAEPPQNLIAQSQSGTGKTAAFVLAMLSQVEPANKYPQCLCLSPTYELALQTGKVIEQMGKFYPELKLAYAVRGNKLERGQKISEQIVIGTPGTVLDWCSKLKFIDPKKIKVFVLDEADVMIATQGHQDQSIRIQAMLPRNCQMLLFSATFEDSVWKFAQKVVPDPNVIKLKREEETLDTIKQYYVLCSSRDEKFQALCNLYGAITIAQAMIFCHTRKTASWLAAELSKEGHQVALLSGEMMVEQRAAVIERFREGKEKVLVTTNVCARGIDVEQVSVVINFDLPVDKDGNPDNETYLHRIGRTGRFGKRGLAVNMVDSKHSMNILNRIQEHFNKKIERLDTDDLDEIEKIAN [R262A] | disrupting interaction |
| MATDSWALAVDEQEAAAESLSNLHLKEEKIKPDTNGAVVKTNANAEKTDEEEKEDRAAQSLLNKLIRSNLVDNTNQVEVLQRDPNSPLYSVKSFEELRLKPQLLQGVYAMGFNRPSKIQENALPLMLAEPPQNLIAQSQSGTGKTAAFVLAMLSQVEPANKYPQCLCLSPTYELALQTGKVIEQMGKFYPELKLAYAVRGNKLERGQKISEQIVIGTPGTVLDWCSKLKFIDPKKIKVFVLDEADVMIATQGHQDQSARIQRMLPRNCQMLLFSATFEDSVWKFAQKVVPDPNVIKLKREEETLDTIKQYYVLCSSRDEKFQALCNLYGAITIAQAMIFCHTRKTASWLAAELSKEGHQVALLSGEMMVEQRAAVIERFREGKEKVLVTTNVCARGIDVEQVSVVINFDLPVDKDGNPDNETYLHRIGRTGRFGKRGLAVNMVDSKHSMNILNRIQEHFNKKIERLDTDDLDEIEKIAN [I258A] | disrupting interaction |
| MATDSWALAVDEQEAAAESLSNLHLKEEKIKPDTNGAVVKTNANAEKTDEEEKEDRAAQSLLNKLIRSNLVDNTNQVEVLQRDPNSPLYSVKSFEELRLKPQLLQGVYAMGFNRPSKIQENALPLMLAEPPQNLIAQSQSGTGKTAAFVLAMLSQVEPANKYPQCLCLSPTYELALQTGKVIEQMGKFYPELKLAYAVRGNKLERGQKISEQIVIGTPGTVLDWCSKLKFIDPKKIKVFVLDEADVMIATQGHQDQSIDIQRMLPRNCQMLLFSATFEDSVWKFAQKVVPDPNVIKLKREEETLDTIKQYYVLCSSRDEKFQALCNLYGAITIAQAMIFCHTRKTASWLAAELSKEGHQVALLSGEMMVEQRAAVIERFREGKEKVLVTTNVCARGIDVEQVSVVINFDLPVDKDGNPDNETYLHRIGRTGRFGKRGLAVNMVDSKHSMNILNRIQEHFNKKIERLDTDDLDEIEKIAN [R259D] | disrupting interaction |
| MATDSWALAVDEQEAAAESLSNLHLKEEKIKPDTNGAVVKTNANAEKTDEEEKEDRAAQSLLNKLIRSNLVDNTNQVEVLQRDPNSPLYSVKSFEELRLKPQLLQGVYAMGFNRPSKIQENALPLMLAEPPQNLIAQSQSGTGKTAAFVLAMLSQVEPANKYPQCLCLSPTYELALQTGKVIEQMGKFYPELKLAYAVRGNKLERGQKISEQIVIGTPGTVLRWCSKLKFIDPKKIKVFVLDEADVMIATQGHQDQSIRIQRMLPRNCQMLLFSATFEDSVWKFAQKVVPDPNVIKLKREEETLDTIKQYYVLCSSRDEKFQALCNLYGAITIAQAMIFCHTRKTASWLAAELSKEGHQVALLSGEMMVEQRAAVIERFREGKEKVLVTTNVCARGIDVEQVSVVINFDLPVDKDGNPDNETYLHRIGRTGRFGKRGLAVNMVDSKHSMNILNRIQEHFNKKIERLDTDDLDEIEKIAN [D223R] | disrupting interaction |
